Data published in publication PMC3176505 (Biochemistry, 2009).

Tests used:
CCCCC1CCCC(=O)O1 = assay: purified protein; conditions: pH 8.3
CCCCCC1CCCC(=O)O1 = assay: purified protein; conditions: pH 8.3

Substance | Km (CCCCC1CCCC(=O)O1) [µM] | kcat/Km (CCCCC1CCCC(=O)O1) [M⁻¹ s⁻¹] | Km (CCCCCC1CCCC(=O)O1) [µM] | kcat/Km (CCCCCC1CCCC(=O)O1) [M⁻¹ s⁻¹]
Dr0930 (Deinococcus radiodurans R1 = ATCC 13939 = DSM 20539) | 100 ± 20 | 420000 ± 70000 | 80 ± 10 | 200000 ± 20000
Dr0930 (Deinococcus radiodurans R1 = ATCC 13939 = DSM 20539; Y28F) | 100 ± 20 | 270000 ± 40000 |  | 
Dr0930 (Deinococcus radiodurans R1 = ATCC 13939 = DSM 20539; Y97F) | 200 ± 20 | 1700 ± 100 |  | 
Dr0930 (Deinococcus radiodurans R1 = ATCC 13939 = DSM 20539; Y98F) | 400 ± 20 | 18000 ± 2000 |  | 
